According to US20110239327A1, “Nematicidal Effects of Cysteine Proteinases and Methods of Use Thereof to Treat Nematode Infestation” (priority 2007, published 2011):

What was measured:
[1] = system: Meloidogyne spp. J2s; assay: Light microscopy and SEM of cuticle damage of Meloidogyne spp. J2s; assay type: cell-based, M. incognita or M. javanica
Experimental: Approximately 1000 J2s (second juvenile stage) of M. incognita or M. javanica were incubated per well of a 48-well plate with the following active enzyme concentrations (determined by E-64 titration) of papain dissolved in distilled water containing 16 mM L-cysteine (to activate the cysteine proteinase): 1.5 μM, 3 μM, 6.25 μM, 12.5 μM, 25 μM, 50 μM, 75 μM and 100 μM. Control wells contained J2s and distilled water with and without 16 mM L-cysteine, or J2s and 1 mM E-64, with and without 50 μM (active enzyme) papain, which had been preincubated for 25 mins at 40° C. Each enzyme concentration and the controls were set up in duplicate (n=2) or triplicate (n=3). The number of active J2s per well was counted prior to the addition of papain, and then the J2s were incubated in the dark at room temperature for 3 h. The number of mobile J2s per well was counted after 60, 120 and 180 mins. The nematode surfaces were examined for signs of damage using a light microscope (Zeiss Axioskop) at ×20, ×40 and ×100 magnification and photographs were taken with a Xillix Microimager. The same procedure was followed when setting up further experiments to compare the effects of 25 μM papain, 25 μM crude papaya latex (0.625 g/ml), 25 μM stem bromelain (0.18 g/ml) and 25 μM actinidin (active enzyme concentrations) with M. incognita, M. javanica or G. rostochiensis.
The effects on the J2 cuticle were more closely examined by scanning electron microscopy (SEM). Approximately 2000 J2s were used per enzyme or control treatment. These J2s were added to each of four 5 ml tubes and centrifuged at 2500 rpm 4° C. for 5 mins. The supernatant was removed and the J2s were resuspended with 500 μl of 100 μM papain, 100 μM actinidin (active enzyme concentrations) or distilled water with and without 16 mM L-cysteine (the enzyme dilutions were prepared with 16 mM L-cysteine dissolved in distilled water). The nematodes were incubated in the dark at ambient temperature for 4 h before centrifugation as above. The J2s were immediately fixed with 2.5% glutaraldehyde in 0.15M phosphate buffer, pH 7.2 for 1 h at room temperature and were then centrifuged as before prior to washing for 1 h in 0.15M phosphate buffer, pH 7.2 at 4° C. These J2s were then prepared for SEM as described previously by Stepek et al. (2005).

[2] = system: M. incognita J2; assay: In planta bioassay, two soil applications: nematode infection of tomato roots; assay type: in vivo, M. incognita on tomato plants; conditions: two soil applications of enzyme (250 μM papain, 2.2 μM bromelain, 3.3 mM actinidin as printed), soil 16% organic matter, 11 days
Experimental: Oxamyl is supplied as 10% liquid Vydate. 125 μl of a solution 1000 fold dilution of 10% formulation (kindly supplied by DK from NIU) was applied to 5 g of the soil mixture with 16% organic matter, to give a partial nematicidal effect. Soil mixtures were wetted with PBS pH 7.2, 16 hrs prior nematode application of 1000 or 2000 M. incognita J2. Infected soil mixtures were treated with water (control) or 250 μM of active papain in 16 mM of L-cysteine or a combination of Vydate and 250 μM of active papain in 16 mM of L-cysteine. After 48 hs tomato seedlings one month old were added to the treated soils. After 11 days the roots were washed free of soil and chopped to approximately 2 mm pieces. The root pieces of each tomato plant was placed in muslin bags and stained with acid-fuchsin. The stained roots were examined under microscope and all the nematodes present in the roots were counted. […] After 48 hours tomato seedlings one month old were added to the treated soils and after 11 days post infection nematode development inside root tissues was assessed as described above.
The avermectins are macrocyclic lactones produced by the actinomycete Streptomyces avermitilis. […] After 48 hs tomato seedlings one month old were added to the treated soils and after 11 days post infection nematode development inside root tissues was assessed as described above. […]

B1: papain (protein, UniProt P00784 134-345, looked up)
Papain: IPEYVDWRQKGAVTPVKNQGSCGSCWAFSAVVTIEGIIKIRTGNLNEYSEQELLDCDRRSYGCNGGYPWSALQLVAQYGIHYRNTYPYEGVQRYCRSREKGPYAAKTDGVRQVQPYNEGALLYSIANQPVSVVLEAAGKDFQLYRGGIFVGPCGNKVDHAVAAVGYGPNYILIKNSWGTGWGENGYIRIKRGTGNSYGVCGLYTSSFYPVKN
notes: cysteine proteinase from Carica papaya, Merops C01.001, Sigma P3125
With B1 the “visible effects on the surface of the nematodes” value ([1]; papain 1.5 μM and 3 μM, light microscopy) was “no visible effects on the surface”, the “digestion of the cuticle at the anterior end (light micrographs)” value ([1]; papain 6.25 μM and 100 μM active enzyme, 3 h) was “Digestion of the cuticle was evident” and the “appearance of the internal structures (light micrographs)” value ([1]; papain 100 μM, 3 h) was “abnormal granular appearance of the internal structures”. For the same molecule, the “active enzyme concentration causing blistering of the cuticle” value ([1]; papain, light microscopy x40 and x100, anterior end) was “above 6.25 μM” and the “reduction of nematode infection of plants” value [2] was 89%.
